According to the supplement of paper PMC11246515:
± gives the standard deviation of the averaged measurements.

Test: total protein half-life in vivo (active degradation + dilution); higher = more stable protein
[1] = E. coli NCM3722 delta-clpP delta-lon delta-hslV, growth: N-lim chemostat, doubling time 6 h
[2] = wild type E. coli NCM3722, growth: P-lim chemostat, doubling time 12 h
[3] = E. coli NCM3722 delta-clpP, growth: N-lim chemostat, doubling time 6 h
[4] = E. coli NCM3722 delta-hslV, growth: N-lim chemostat, doubling time 6 h
[5] = E. coli NCM3722 delta-smpB, growth: N-lim chemostat, doubling time 6 h
[6] = wild type E. coli NCM3722, growth: C-lim chemostat, doubling time 3 h
[7] = wild type E. coli NCM3722, growth: C-lim chemostat, doubling time 12 h
[8] = wild type E. coli NCM3722, growth: N-lim chemostat, doubling time 6 h
[9] = wild type E. coli NCM3722, growth: N-lim chemostat, doubling time 12 h
[10] = E. coli NCM3722 delta-lon, growth: N-lim chemostat, doubling time 6 h
[11] = wild type E. coli NCM3722, growth: C-lim chemostat, doubling time 6 h
[12] = wild type E. coli NCM3722, growth: P-lim chemostat, doubling time 6 h

Sequence | total protein half-life in vivo [1] | total protein half-life in vivo [2] | total protein half-life in vivo [3] | total protein half-life in vivo [4] | total protein half-life in vivo [5] | total protein half-life in vivo [6] | total protein half-life in vivo [7] | total protein half-life in vivo [8] | total protein half-life in vivo [9] | total protein half-life in vivo [10] | total protein half-life in vivo [11] | total protein half-life in vivo [12]
MELKKLMGHISIIPDYRQAWKMEHKLSDILLLTICAVISGAEGWEDIEDFGETHPDFLKQYGDFENGIPVHDTIARVVSCISPAKFHECFINWMRDCHSSDDKDVIAIDGKTLRHSYDKSRRRGAIHVISAFSTMHSLVIGQIKTDEKSNEITAIPELLNMLDIKGKIITTDAMGCQKDIAEKIQKQGGDYLFAVKGNQGRLNKAFEEKFPLKELNNPAHDSYAMSEKSHGREEIRLHIVCDVPDELIDFTFEWKGLKKLCVAVSFRSIIAEQKKELEMTVRYYISSADLTAEKFATAIRNHWHVENKLHWRLDVVMNEDDCKIRRGNAAELFSGIRHIAINILTNDKVFKAGLRRKMRKAAMDRNYLASVLTGSGLS | 6.51 h | 11.9 h | – | – | – | – | – | – | – | – | – | –
MELLVLVWRQYRWPFISVMALSLASAALGIGLIAFINQRLIETADTSLLVLPEFLGLLLLLMAVTLGSQLALTTLGHHFVYRLRSEFIKRILDTHVERIEQLGSASLLAGLTSDVRNITIAFVRLPELVQGIILTIGSAAYLWMLSGKMLLVTAIWMAITIWGGFVLVARVYKHMATLRETEDKLYTDFQTVLEGRKELTLNRERAEYVFNNLYIPDAQEYRHHIIRADTFHLSAVNWSNIMMLGAIGLVFWMANSLGWADTNVAATYSLTLLFLRTPLLSAVGALPTLLTAQVAFNKLNKFALAPFKAEFPRPQAFPNWQTLELRNVTFAYQDNAFSVGPINLTIKRGELLFLIGGNGSGKSTLAMLLTGLYQPQSGEILLDGKPVSGEQPEDYRKLFSAVFTDVWLFDQLLGPEGKPANPQLVEKWLAQLKMAHKLELSNGRIVNLKLSKGQKKRVALLLALAEERDIILLDEWAADQDPHFRREFYQVLLPLMQEMGKTIFAISHDDHYFIHADRLLEMRNGQLSELTGEERDAASRDAVARTA | – | 6.15 h | 5.55 ± 0.68 h | 2.75 h | 3.49 ± 2.1 h | 3.11 ± 0.83 h | 8.87 h | 3.39 h | 6.04 h | – | – | –
MELRHLRYFVAVAQALNFTRAAEKLHTSQPSLSSQIRDLENCVGVPLLVRDKRKVALTAAGECFLQDALAILEQAENAKLRARKIVQEDRQLTIGFVPSAEVNLLPKVLPMFRLRQPDTLIELVSLITTQQEEKIRRGELDVGLMRHPVYSPEIDYLELFDEPLVVVLPVDHPLAHEKEITAAQLDGVNFVSTDPVYSGSLAPIVKAWFAQENSQPNIVQVATNILVTMNLVGMGLGVTLIPGYMNNFNTGQVVFRPIAGNVPSIALLMAWKKGEMKPALRDFIAIVQERLASVTA | 5.58 ± 0.39 h | – | – | – | – | 0.275 h | – | – | – | – | – | –
MELYLDTANVAEVERLARIFPIAGVTTNPSIIAASKESIWEVLPRLQKAIGDEGILFAQTMSRDAQGMVEEAKRLRDAIPGIVVKIPVTSEGLAAIKILKKEGITTLGTAVYSAAQGLLAALAGAKYVAPYVNRVDAQGGDGIRTVQELQTLLEMHAPESMVLAASFKTPRQALDCLLAGCESITLPLDVAQQMLNTPAVESAIEKFEHDWNAAFGTTHL | 4.61 ± 1.5 h | 9.74 ± 0.17 h | – | – | 2.84 h | 2.91 ± 0.4 h | 9.6 ± 0.48 h | – | – | 3.3 h | 3.9 ± 0.8 h | 5.37 h
MEMTSAFTLNVRLDNIAVITIDVPGEKMNTLKAEFASQVRAIIKQLRENKELRGVVFVSAKPDNFIAGADINMIGNCKTAQEAEALARQGQQLMAEIHALPIQVIAAIHGACLGGGLELALACHGRVCTDDPKTVLGLPEVQLGLLPGSGGTQRLPRLIGVSTALEMILTGKQLRAKQALKLGLVDDVVPHSILLEAAVELAKKERPSSRPLPVRERILAGPLGRALLFKMVGKKTEHKTQGNYPATERILEVVETGLAQGTSSGYDAEARAFGELAMTPQSQALRSIFFASTDVKKDPGSDAPPAPLNSVGILGGGLMGGGIAYVTACKAGIPVRIKDINPQGINHALKYSWDQLEGKVRRRHLKASERDKQLALISGTTDYRGFAHRDLIIEAVFENLELKQQMVAEVEQNCAAHTIFASNTSSLPIGDIAAHATRPEQVIGLHFFSPVEKMPLVEIIPHAGTSAQTIATTVKLAKKQGKTPIVVRDKAGFYVNRILAPYINEAIRMLTQGERVEHIDAALVKFGFPVGPIQLLDEVGIDTGTKIIPVLEAAYGERFSAPANVVSSILNDDRKGRKNGRGFYLYGQKGRKSKKQVDPAIYPLIGTQGQGRISAPQVAERCVMLMLNEAVRCVDEQVIRSVRDGDIGAVFGIGFPPFLGGPFRYIDSLGAGEVVAIMQRLATQYGSRFTPCERLVEMGARGESFWKTTATDLQ | 6.37 ± 0.25 h | 12.3 ± 0.21 h | 6.427 ± 0.028 h | 6.27 ± 0.24 h | 5.89 ± 0.35 h | 2.94 ± 0.22 h | 12 ± 0.15 h | 5.986 ± 0.037 h | 13.5 ± 2.2 h | 6.41 ± 0.81 h | 6.2 ± 0.16 h | 6.1 ± 0.18 h
MENAKMNSLIAQYPLVKDLVALKETTWFNPGTTSLAEGLPYVGLTEQDVQDAHARLSRFAPYLAKAFPETAATGGIIESELVAIPAMQKRLEKEYQQPISGQLLLKKDSHLPISGSIKARGGIYEVLAHAEKLALEAGLLTLDDDYSKLLSPEFKQFFSQYSIAVGSTGNLGLSIGIMSARIGFKVTVHMSADARAWKKAKLRSHGVTVVEYEQDYGVAVEEGRKAAQSDPNCFFIDDENSRTLFLGYSVAGQRLKAQFAQQGRIVDADNPLFVYLPCGVGGGPGGVAFGLKLAFGDHVHCFFAEPTHSPCMLLGVHTGLHDQISVQDIGIDNLTAADGLAVGRASGFVGRAMERLLDGFYTLSDQTMYDMLGWLAQEEGIRLEPSALAGMAGPQRVCASVSYQQMHGFSAEQLRNTTHLVWATGGGMVPEEEMNQYLAKGR | 5.22 ± 0.27 h | 11.2 ± 2.2 h | 5.27 ± 1.2 h | 4.89 ± 0.1 h | 4.517 ± 0.042 h | 3.01 ± 0.033 h | 10 ± 1.9 h | 4.91 ± 0.21 h | 7.88 ± 0.44 h | 5.43 ± 0.24 h | – | 5.98 ± 0.35 h
MENKYSRLQISIHWLVFLLVIAAYCAMEFRGFFPRSDRPLINMIHVSCGISILVLMVVRLLLRLKYPTPPIIPKPKPMMTGLAHLGHLVIYLLFIALPVIGLVMMYNRGNPWFAFGLTMPYASEANFERVDSLKSWHETLANLGYFVIGLHAAAALAHHYFWKDNTLLRMMPRKRS [P0ABE5] | 7.28 h | 11.9 h | 5.78 h | 6.32 h | 5.9 h | 2.81 ± 0.06 h | 14.8 h | – | 10.6 h | – | 5.31 h | –
MENLARFLSTTLKQLRQQRGWSLSRLAEATGVSKAMLGQIERNESSPTVATLWKIATGLNVPFSTFISPPQSATPSVYDPQQQAMVITSLFPYDPQLCFEHFSIQMASGAISESTPHEKGVIEHVVVIDGQLDLCVDGEWQTLNCGEGVRFAADVTHIYRNGGEQTVHFHSLIHYPRS | 5.69 ± 0.83 h | 9.9 ± 0.44 h | 4.59 ± 0.28 h | 4.71 ± 0.22 h | 5.33 ± 1.1 h | 3.4 ± 0.15 h | 10.1 ± 0.49 h | 4.52 ± 0.93 h | 7.78 ± 0.9 h | 5.58 ± 0.23 h | 5.27 ± 0.69 h | 6.27 ± 1.1 h
MENQPKLNSSKEVIAFLAERFPHCFSAEGEARPLKIGIFQDLVDRVAGEMNLSKTQLRSALRLYTSSWRYLYGVKPGATRVDLDGNPCGELDEQHVEHARKQLEEAKARVQAQRAEQQAKKREAAATAGEKEDAPRRERKPRPTTPRRKEGAERKPRAQKPVEKAPKTVKAPREEQHTPVSDISALTVGQALKVKAGQNAMDATVLEITKDGVRVQLNSGMSLIVRAEHLVF | 6.28 ± 0.52 h | 4.71 ± 0.23 h | 4.08 ± 0.88 h | 3.47 ± 0.071 h | 3.13 ± 0.045 h | 2.73 ± 0.21 h | 6.83 ± 0.53 h | 3.07 ± 0.052 h | 4.76 ± 0.052 h | – | 4.51 ± 0.22 h | 2.974 ± 0.024 h
MENYLIDNLDRGILEALMGNARTAYAELAKQFGVSPGTIHVRVEKMKQAGIITGARIDVSPKQLGYDVGCFIGIILKSAKDYPSALAKLESLDEVTEAYYTTGHYSIFIKVMCRSIDALQHVLINKIQTIDEIQSTETLIVLQNPIMRTIKP [P0ACI6] | – | 13.2 ± 0.17 h | 5.95 h | 6.24 ± 1.1 h | 5.72 ± 0.49 h | 3.51 ± 0.15 h | 11.4 h | 5.85 ± 0.57 h | 11.6 ± 0.12 h | 5.77 ± 0.21 h | 6.232 ± 0.029 h | 6.94 ± 0.64 h
MEQRRLASTEWVDIVNEENEVIAQASREQMRAQCLRHRATYIVVHDGMGKILVQRRTETKDFLPGMLDATAGGVVQADEQLLESARREAEEELGIAGVPFAEHGQFYFEDKNCRVWGALFSCVSHGPFALQEDEVSEVCWLTPEEITARCDEFTPDSLKALALWMKRNAKNEAVETETAE | 5.19 ± 0.16 h | 7.2 ± 0.65 h | 4.78 ± 0.093 h | 2.3 ± 0.074 h | 2.49 ± 0.11 h | 1.93 ± 0.17 h | 7.26 ± 0.99 h | 2.85 h | 3.09 ± 0.045 h | 2.72 ± 0.38 h | 4.53 ± 1.2 h | 3.4 ± 0.06 h
MERCGWVSQDPLYIAYHDNEWGVPETDSKKLFEMICLEGQQAGLSWITVLKKRENYRACFHQFDPVKVAAMQEEDVERLVQDAGIIRHRGKIQAIIGNARAYLQMEQNGEPFVDFVWSFVNHQPQVTQATTLSEIPTSTSASDALSKALKKRGFKFVGTTICYSFMQACGLVNDHVVGCCCYPGNKP | 5.26 ± 0.55 h | – | 2.52 ± 0.12 h | 2.48 ± 0.17 h | 1.72 ± 0.98 h | – | 3.77 ± 2 h | 2.53 ± 0.58 h | 3.37 h | 4.36 ± 0.28 h | 1.68 h | –
